One molecule from US20060141451A1 (ORTHO MCNEIL PHARMACEUTICAL, published 2006) can be followed below.

No end group written: not given here.

Assay [1] concerns the target T1, guinea pig proteinase-activated receptor 4 (PAR-4) (guinea pig (Cavia porcellus)).
T1 chain: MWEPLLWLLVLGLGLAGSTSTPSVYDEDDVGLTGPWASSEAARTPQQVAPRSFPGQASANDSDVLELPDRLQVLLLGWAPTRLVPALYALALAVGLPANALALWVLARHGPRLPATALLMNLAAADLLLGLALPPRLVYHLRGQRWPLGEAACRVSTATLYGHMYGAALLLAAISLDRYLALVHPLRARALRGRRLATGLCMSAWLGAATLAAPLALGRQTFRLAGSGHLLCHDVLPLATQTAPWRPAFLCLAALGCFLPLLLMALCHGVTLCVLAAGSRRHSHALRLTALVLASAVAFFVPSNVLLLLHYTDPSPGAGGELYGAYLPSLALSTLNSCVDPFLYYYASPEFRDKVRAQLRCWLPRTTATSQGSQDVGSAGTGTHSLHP
Description: cell-based or functional assay.

The next assay addresses T2, human PAR-4 (human, UniProt Q96RI0 48-385).
T2 sequence (looked up): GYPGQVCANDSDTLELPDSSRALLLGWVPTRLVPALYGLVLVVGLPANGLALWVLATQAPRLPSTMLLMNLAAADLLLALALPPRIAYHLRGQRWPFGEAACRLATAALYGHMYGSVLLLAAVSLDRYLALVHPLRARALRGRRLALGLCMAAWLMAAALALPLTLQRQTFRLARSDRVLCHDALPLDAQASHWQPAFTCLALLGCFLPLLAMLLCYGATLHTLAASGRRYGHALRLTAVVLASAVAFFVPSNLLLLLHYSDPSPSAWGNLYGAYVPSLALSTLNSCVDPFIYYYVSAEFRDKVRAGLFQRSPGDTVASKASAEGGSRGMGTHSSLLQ
Description: cell-based or functional assay.

B1: guinea pig PAR-4 activating peptide SFPGQA-NH2 (peptide)
peptide: SFPGQA-NH2
B1: in assay [1], the “aggregation of guinea pig gel filtered platelets, EC50” value was found to be 174 µM. Moreover, the “aggregation of human gel filtered platelets, EC50” value with human PAR-4 is 140 µM.
